Results on 1 substance are retold here after patent US20220340635A1, “FUSION PROTEIN FOR TREATMENT OF METABOLIC DISEASE” (ZHEJIANG DOER BIOLOGICS CORPORATION, priority 2019, published 2022).

For this assay, the target named is β-klotho (KLB). The experiment in a line: cell-based or functional assay.

Turning to “Natural FGF21 (from UniProt Q9NSA1 29-209) (ligand)”, the FGF21 activity (EC50, nM) amounted to 0.12 nM.
